Data on one molecule can be found in patent US8445246B2, “Flavin-binding glucose dehydrogenases” (Kikkoman Corporation, priority 2009, dated 2013).

A short description of assay [1]: GDH activity measurement (PMS/DCIP, absorbance at 600 nm). The class given is biochemical. To be noted: purified enzymes / commercial GOD. The procedure:
Specifically, the activity of the flavin-binding GDH is measured in the following manner, according to the invention. A mixture of 1.79 mL of 100 mM phosphate buffer (pH 7.0), 0.08 mL of a 1.25 M D-glucose solution and 0.01 mL of a 20 mM DCIP solution is warmed at 37° C. for 5 minutes. Next, 0.02 mL of a 20 mM PMS solution and 0.1 mL of an enzyme sample solution are added, and reaction is initiated. The absorbance is measured at the start of the reaction and periodically thereafter, the reduction in absorbance at 600 nm per minute (ΔA600) as the enzyme reaction proceeds is determined, and the flavin-binding GDH activity is calculated by the following formula. […]
The value of 2.0 in the formula is the liquid volume (mL) of reaction reagent+enzyme reagent, 16.3 is the millimolar molecular absorption coefficient (cm^2/μmol) under the activity measuring conditions, 0.1 is the liquid volume (mL) of the enzyme solution, 1.0 is the optical path length (cm) of the cell, ΔA600blank is the reduction in absorbance at 600 nm per minute, when the reaction is initiated by addition of 10 mM acetate buffer instead of the enzyme sample solution, and df represents the degree of dilution.
Each solution was combined by the procedure described below, and the absorbance was measured to determine the GDH activity of the crude enzyme solution. […]

A short description of assay [2]: GOD activity measurement (4-AA/TOOS/POD, absorbance at 555 nm). The class given is biochemical. To be noted: 131 mM D-glucose, 37° C. As for the experimental part:
The GDH activity was measured according to the method of Example 1, and GOD activity was measured by the following method using 4-aminoantipyrine (4-AA) and N-ethyl-N-(2-hydroxy-3-sulfopropyl)-3-methylaniline (TOOS). After mixing 30.0 mL of 100 mM phosphate buffer (pH 7.0), 6.0 mL of an 833 mM D-glucose solution, 0.3 mL of a 25 mM 4-AA solution, 0.3 mL of a 40 mM TOOS solution and 0.3 mL of a 500 U/mL, POD solution, 3.0 mL of the mixture was transferred to a test tube and warmed at 37° C. for 5 minutes, after which 0.1 mL of enzyme sample solution was added and reaction was initiated. The increase in absorbance at 555 nm per minute (ΔA555) was measured as the enzyme reaction proceeded, and the GOD activity was calculated by the formula shown below. […]
The value of 3.1 in the formula is the liquid volume (mL) of reaction reagents+enzyme reagent, 32.8 is the millimolar molecular absorption coefficient (cm^2/μmol) under the activity measuring conditions, 0.5 is the number of molecules of quinoneimine dye produced when 1 molecule of H2O2 is reduced, 0.1 is the liquid volume (mL) of the enzyme solution, 1.0 is the optical path length (cm) of the cell, ΔA555blank is the increase in absorbance at 555 nm per minute, when the reaction is initiated by addition of 10 mM acetate buffer instead of the enzyme sample solution, and df represents the degree of dilution.

B1: Aspergillus niger-derived GOD: commercially available glucose oxidase derived from Aspergillus niger (GOD, product of Biozyme Laboratories) (protein, UniProt P13006 17-605, looked up)
Glucose oxidase: LPHYIRSNGIEASLLTDPKDVSGRTVDYIIAGGGLTGLTTAARLTENPNISVLVIESGSYESDRGPIIEDLNAYGDIFGSSVDHAYETVELATNNQTALIRSGNGLGGSTLVNGGTWTRPHKAQVDSWETVFGNEGWNWDNVAAYSLQAERARAPNAKQIAAGHYFNASCHGVNGTVHAGPRDTGDDYSPIVKALMSAVEDRGVPTKKDFGCGDPHGVSMFPNTLHEDQVRSDAAREWLLPNYQRPNLQVLTGQYVGKVLLSQNGTTPRAVGVEFGTHKGNTHNVYAKHEVLLAAGSAVSPTILEYSGIGMKSILEPLGIDTVVDLPVGLNLQDQTTATVRSRITSAGAGQGQAAWFATFNETFGDYSEKAHELLNTKLEQWAEEAVARGGFHNTTALLIQYENYRDWIVNHNVAYSELFLDTAGVASFDVWDLLPFTRGYVHILDKDPYLHHFAYDPQYFLNELDLLGQAAATQLARNISNSGAMQTYFAGETIPGDNLAYDADLSAWTEYIPYHFRPNYHGVGTCSMMPKEMGGVVDNAARVYGVQGLRVIDGSIPPTQMSSHVMTVFYAMALKISDAILEDYASMQ
B1 had a GDH activity in assay [1] of 3.50 U/mL. The GOD activity in assay [2] is listed as 9.38 U/mL.
